Experiment [1] deals with T1, Human CD48 on cells (human, UniProt P09326 27-220).
T1 sequence: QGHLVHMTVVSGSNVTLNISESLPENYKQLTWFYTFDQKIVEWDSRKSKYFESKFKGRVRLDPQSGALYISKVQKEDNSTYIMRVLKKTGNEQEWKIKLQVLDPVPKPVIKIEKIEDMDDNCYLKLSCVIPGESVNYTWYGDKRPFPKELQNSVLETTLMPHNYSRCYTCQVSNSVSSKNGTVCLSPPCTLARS
Nature of the experiment: cell-based or functional assay.

The target in experiment [2] is T1, Human CD48 on cells. Nature of the experiment: cell-based or functional assay. This is another data set of the same source.
The target in experiment [3] is T2, Human CD48 (soluble recombinant, SPR analyte) (human, UniProt P09326 27-220).
T2 construct: also called Human CD48 antigen; not shown: C-terminal tag (hFc1P, APP6-Avi or His) is not specified for the analyte
T2 sequence: T1 sequence
Nature of the experiment: SPR Biacore T200, antibody captured on protein A chip, soluble CD48 as analyte, 25 C, 1:1 model. How it is done: (§1) HBS-EP+pH 7.4 containing 10 mM HEPES, 150 mM NaCl, 3 mM EDTA and 0.05% (v/v) surfactant P20 (Teknova, ordering #H8022) was used as running buffer as well as for sample dilution.
(§2) The anti-CD48 antibodies were diluted at 5 μg/ml and injected on flow cells 2 and 4 for 20 sec at 10 μl/min. Capture level for all antibodies was 370-440 RU. Flow cells 1 and 3 were left blank (no antibody captured) and used as a reference surface. Human and cynomolgus CD48 served as analytes in solution. […] After each cycle of antibody capture and analyte injection, the chip surface was regenerated with 10 mM Glycine-HCl pH 1.5 (Cytiva, ordering #BR100354) for 2×30 s at a flow rate of 50 μl/min. Three runs with duplicate measurements and buffer blank injections were performed. Measurements were executed at 25° C. and data collected at a rate of 10 Hz.
(§3) Data were evaluated using the Biacore 8K evaluation software. The raw data were double referenced, i.e. the response of the measuring flow cells was corrected for the response of the reference flow cells (no antibody captured), and in a second step the response of a blank injection (buffer) was subtracted. Finally, the sensorgrams were fitted by applying a 1:1 interaction model with a constant fit of RI (0) and a global fit for Rₘₐₓ. Kinetic rate constants (kₐ, kd) and equilibrium dissociation constants (KD) were calculated. Data were processed separately for each run. The generated values were used to calculate average values and standard deviations of the respective equilibrium dissociation constants and the kinetic rate constants.
For orientation: SPR reads the build-up and loss of mass on a sensor chip optically.

For experiment [4], the target named is T3, Cynomolgus CD48 (soluble recombinant, SPR analyte) (cynomolgus monkey (Macaca fascicularis), UniProt P09326 30-225 (human entry)).
T3 construct: also called cyno CD48; Cyno CD48; not shown: C-terminal tag (hFc1P, APP6-Avi or His) is not specified for the analyte
T3 chain: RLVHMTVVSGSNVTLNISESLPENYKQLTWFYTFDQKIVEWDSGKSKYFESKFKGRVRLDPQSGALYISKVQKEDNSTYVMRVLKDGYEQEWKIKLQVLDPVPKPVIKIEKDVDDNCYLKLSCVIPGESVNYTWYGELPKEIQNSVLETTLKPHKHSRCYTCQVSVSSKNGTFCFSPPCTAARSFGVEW
The experiment is described as above. Here is the method: as §1, §2, §3

Experiment [5] addresses T2, Human CD48 (soluble recombinant, SPR …). Nature of the experiment: SPR Biacore T200, antibody captured on Protein A chip, soluble CD48 as analyte, 1:1 model, Exp 1. Here is the method:
(§4) Binding to human and cyno CD48 for the WT IgG and DAPA (D265A and P329A mutation) variant was assessed for affinity determinations using Biacore. Kinetic rate constants was performed via SPR using the Biacore T200 instrument (Cytiva, formerly GE Healthcare Lifesciences) as described below.
(§5) The Protein A capture method was utilized in order to determine kinetics for the antibodies. […] The human CD48 and cyno CD48 concentration started at 50 nM and 200 nM respectively, and were serially diluted at one part to one part for nine concentrations. Regeneration was performed at the end of each concentration washing with the Glycine pH1.5 (Cytiva, cat #BR100354).
(§6) Double reference subtraction was completed to generate the final data. The raw data was fitted to a 1:1 binding model, with parameter(s) Rmax set to local.

Experiment [6] concerns the target T3, Cynomolgus CD48 (soluble recombinant, …). Described as above. Here is the method:
as §4, §5, §6

Experiment [7] addresses T2, Human CD48 (soluble recombinant, SPR …). Briefly: SPR Biacore T200, antibody captured on Protein A chip, soluble CD48 as analyte, 1:1 model, Exp 2. How it is done: as §4, §5, §6
In experiment [8] the target is T3, Cynomolgus CD48 (soluble recombinant, …). Described as above. How it is done: as §4, §5, §6

The text below walks through data of patent publication US20220162308A1 (Novartis, published 2022).

Like-named read-outs stand apart in the source and are kept apart here.

B1: NY920-DAPA-VC-MMAE (antibody, human IgG1, kappa)
heavy: EVQLLESGGGLVQPGGSLRLSCAASGFTFSSFAMSWVRQAPGKGLEWVSAISGFGGSTYYADSVKGRFTISRDNSKNTLYLQMNSLRAEDTAVYYCARQFWEDQPFYFDYWGQGTLVTVSSASTKGPSVFPLAPSSKSTSGGTAALGCLVKDYFPCPVTVSWNSGALTSGVHTFPAVLQSSGLYSLSSVVTVPSSSLGTQTYICNVNHKPSNTKVDKRVEPKSCDKTHTCPPCPAPELLGGPSVFLFPPKPKDTLMISRTPEVTCVVVAVSHEDPEVKFNWYVDGVEVHNAKTKPREEQYNSTYRVVSVLTVLHQDWLNGKEYKCKVSNKALAAPIEKTISKAKGQPREPQVYTLPPSREEMTKNQVSLTCLVKGFYPCDIAVEWESNGQPENNYKTTPPVLDSDGSFFLYSKLTVDKSRWQQGNVFSCSVMHEALHNHYTQKSLSLSPGK
light: not shown
modifications: VC-MMAE (MC-valcit-PAB-MMAE) on the engineered cysteines (E152C, S375C, EU numbering)
On to B1, for which, in the experiment with Human CD48 on cells [1], the “Amax (Span), KMS-20” value came to 94; the “Amax (Span), KMS-21-BM” value came to 92.9; the “Amax (Span), KMS-27” value came out at 83.9; the “Amax (Span), NCI-H929” value amounted to 89.7. In the experiment with Human CD48 on cells [1], the “IC50 (nM), cell proliferation/survival (CellTiter-Glo), KMS-20” value is 0.077 nM; the “IC50 (nM), cell proliferation/survival (CellTiter-Glo), KMS-21-BM” value is 0.026 nM; the “IC50 (nM), cell proliferation/survival (CellTiter-Glo), KMS-27” value came out at 0.028 nM; the “IC50 (nM), cell proliferation/survival (CellTiter-Glo), NCI-H929” value turned out to be 0.027 nM.

B2: CD48A-CysMab-VC-MMAE (antibody, human IgG1, kappa)
heavy: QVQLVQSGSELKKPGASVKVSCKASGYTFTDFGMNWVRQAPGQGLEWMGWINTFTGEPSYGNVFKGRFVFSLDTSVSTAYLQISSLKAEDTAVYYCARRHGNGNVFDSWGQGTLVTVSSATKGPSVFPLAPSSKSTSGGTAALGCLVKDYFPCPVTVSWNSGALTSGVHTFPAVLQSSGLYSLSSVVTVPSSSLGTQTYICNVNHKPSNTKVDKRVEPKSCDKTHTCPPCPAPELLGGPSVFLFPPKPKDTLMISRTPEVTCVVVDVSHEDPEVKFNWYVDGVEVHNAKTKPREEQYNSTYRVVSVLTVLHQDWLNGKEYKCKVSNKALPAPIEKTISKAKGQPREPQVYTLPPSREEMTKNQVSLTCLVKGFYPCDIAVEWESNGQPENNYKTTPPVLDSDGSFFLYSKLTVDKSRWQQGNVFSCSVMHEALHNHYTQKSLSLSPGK
light: EIVLTQSPDFQSVTPKEKVTITCRASQSIGSNIHWYQQKPDQSPKLLIKYTSESISGVPSRFSGSGSGTDFTLTINSLEAEDAATYYCQQSNSWPLTFGGGTKVEIKRTVAAPSVFIFPPSDEQLKSGTASVVCLLNNFYPREAKVQWKVDNALQSGNSQESVTEQDSKDSTYSLSSTLTLSKADYEKHKVYACEVTHQGLSSPVTKSFNRGEC
modifications: MC-valcit-PAB-MMAE on the engineered cysteines (CysMab: E152C, S375C, EU numbering); DAR 3.9
Take B2: in the experiment with Human CD48 on cells [2], the “IC50 (nM), cell proliferation/survival (CellTiter-Glo), KMS-21-BM” value was 0.062 nM; the “IC50 (nM), cell proliferation/survival (CellTiter-Glo), KMS-27” value amounted to 6.1 nM; the “IC50 (nM), cell proliferation/survival (CellTiter-Glo), NCI-H929” value was 2.1 nM.

B3: NY938 (antibody, human IgG1, kappa)
heavy: not shown
light: DIQMTQSPSSLSASVGDRVTITCKASQDVGTAVAWYQQKPGKVPKLLIYWASTRHTGVPSRFSGSGSGTDFTLTISSLQPEDVATYYCQQYSTYPITFGQGTKLEIKRTVAAPSVFIFPPSDEQLKSGTASVVCLLNNFYPREAKVQWKVDNALQSGNSQESVTEQDSKDSTYSLSSTLTLSKADYEKHKVYACEVTHQGLSSPVTKSFNRGEC
notes: also called anti-CD48-NY938-hIgG1_kappa (a-fuc); NY938-IgG
A word on the Kd: it is the constant that tells how readily two partners part at equilibrium. The koff is the rate constant with which the complex falls apart. As a reminder, the kon is the rate constant with which the complex forms. As to B3, in the experiment with Human CD48 on cells [2], the “IC50 (nM), cell proliferation/survival (CellTiter-Glo), KMS-21-BM, with anti-human Fc-VC-MMAE” value is 0.008 nM; the “IC50 (nM), cell proliferation/survival (CellTiter-Glo), KMS-27, with anti-human Fc-VC-MMAE” value was less than 0.001 nM; the “IC50 (nM), cell proliferation/survival (CellTiter-Glo), NCI-H929, with anti-human Fc-VC-MMAE” value was 0.004 nM; the “Span (Amax), KMS-21-BM, with anti-human Fc-VC-MMAE” value amounted to 98.9. Moreover, in the experiment with Human CD48 on cells [2], the “Span (Amax), KMS-27, with anti-human Fc-VC-MMAE” value was greater than 100 and the “Span (Amax), NCI-H929, with anti-human Fc-VC-MMAE” value is 99.7. For the same molecule, in experiment [3], the Kd stood at 0.5 nM, the koff was determined as 0.00013 s⁻¹ and the kon amounted to 250000 M⁻¹ s⁻¹. In experiment [4], the Kd worked out at 1.5 nM, the koff was determined as 0.00037 s⁻¹ and the kon came to 250000 M⁻¹ s⁻¹.

B4: NY938-CysMab-VC-MMAE (antibody, human IgG1, kappa)
heavy: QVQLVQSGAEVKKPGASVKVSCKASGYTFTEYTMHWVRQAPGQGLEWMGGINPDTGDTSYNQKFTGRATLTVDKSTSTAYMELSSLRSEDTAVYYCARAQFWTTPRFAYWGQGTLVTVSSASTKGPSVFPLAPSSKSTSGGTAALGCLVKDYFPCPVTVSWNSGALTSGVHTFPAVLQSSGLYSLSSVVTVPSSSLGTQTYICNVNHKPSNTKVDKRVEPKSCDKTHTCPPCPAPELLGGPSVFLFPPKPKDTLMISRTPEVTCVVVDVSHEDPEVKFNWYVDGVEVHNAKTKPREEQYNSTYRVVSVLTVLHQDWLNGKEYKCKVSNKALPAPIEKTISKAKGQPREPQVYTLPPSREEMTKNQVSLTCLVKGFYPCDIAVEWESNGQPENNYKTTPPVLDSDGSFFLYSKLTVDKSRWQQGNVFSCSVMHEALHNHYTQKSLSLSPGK
light: B3 light
modifications: VC-MMAE (MC-valcit-PAB-MMAE) on the engineered cysteines (E152C, S375C, EU numbering)
B4: in the experiment with Human CD48 on cells [1], the “Amax (Span), KMS-20” value came to 99.2; the “Amax (Span), KMS-21-BM” value came out at 105; the “Amax (Span), KMS-27” value amounted to 98.6; the “Amax (Span), NCI-H929” value amounted to 101. Besides, in the experiment with Human CD48 on cells [1], the “IC50 (nM), cell proliferation/survival (CellTiter-Glo), KMS-20” value stood at 0.043 nM; the “IC50 (nM), cell proliferation/survival (CellTiter-Glo), KMS-21-BM” value is 0.021 nM; the “IC50 (nM), cell proliferation/survival (CellTiter-Glo), KMS-27” value worked out at 0.017 nM; the “IC50 (nM), cell proliferation/survival (CellTiter-Glo), NCI-H929” value turned out to be 0.018 nM.

B5: NY938-DAPA-VC-MMAE (antibody, human IgG1, kappa)
heavy: QVQLVQSGAEVKKPGASVKVSCKASGYTFTEYTMHWVRQAPGQGLEWMGGINPDTGDTSYNQKFTGRATLTVDKSTSTAYMELSSLRSEDTAVYYCARAQFWTTPRFAYWGQGTLVTVSSASTKGPSVFPLAPSSKSTSGGTAALGCLVKDYFPCPVTVSWNSGALTSGVHTFPAVLQSSGLYSLSSVVTVPSSSLGTQTYICNVNHKPSNTKVDKRVEPKSCDKTHTCPPCPAPELLGGPSVFLFPPKPKDTLMISRTPEVTCVVVAVSHEDPEVKFNWYVDGVEVHNAKTKPREEQYNSTYRVVSVLTVLHQDWLNGKEYKCKVSNKALAAPIEKTISKAKGQPREPQVYTLPPSREEMTKNQVSLTCLVKGFYPCDIAVEWESNGQPENNYKTTPPVLDSDGSFFLYSKLTVDKSRWQQGNVFSCSVMHEALHNHYTQKSLSLSPGK
light: B3 light
modifications: VC-MMAE (MC-valcit-PAB-MMAE) on the engineered cysteines (E152C, S375C, EU numbering)
On to B5, for which, in the experiment with Human CD48 on cells [1], the “Amax (Span), KMS-20” value was 99.8; the “Amax (Span), KMS-21-BM” value came out at 105; the “Amax (Span), KMS-27” value was found to be 108; the “Amax (Span), NCI-H929” value stood at 105. In the experiment with Human CD48 on cells [1], the “IC50 (nM), cell proliferation/survival (CellTiter-Glo), KMS-20” value stood at 0.037 nM; the “IC50 (nM), cell proliferation/survival (CellTiter-Glo), KMS-21-BM” value came to 0.021 nM; the “IC50 (nM), cell proliferation/survival (CellTiter-Glo), KMS-27” value was determined as 0.014 nM; the “IC50 (nM), cell proliferation/survival (CellTiter-Glo), NCI-H929” value stood at 0.016 nM.

B6: NY938 DAPA (antibody, human IgG1, kappa, name in EU numbering)
heavy: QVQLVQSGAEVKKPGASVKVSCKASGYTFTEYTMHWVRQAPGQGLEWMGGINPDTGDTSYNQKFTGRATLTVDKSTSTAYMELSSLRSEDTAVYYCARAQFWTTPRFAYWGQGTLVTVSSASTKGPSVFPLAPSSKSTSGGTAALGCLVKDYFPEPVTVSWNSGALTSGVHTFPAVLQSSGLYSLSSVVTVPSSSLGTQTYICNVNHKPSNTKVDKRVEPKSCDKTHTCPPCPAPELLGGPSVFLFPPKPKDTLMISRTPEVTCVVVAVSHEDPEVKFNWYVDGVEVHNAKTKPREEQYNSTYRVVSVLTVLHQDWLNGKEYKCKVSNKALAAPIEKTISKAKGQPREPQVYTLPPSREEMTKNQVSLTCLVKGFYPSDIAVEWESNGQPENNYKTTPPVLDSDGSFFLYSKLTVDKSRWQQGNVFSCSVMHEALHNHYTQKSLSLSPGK
light: B3 light
notes: Positions are EU numbers; also called NY938 DAPA IgG variant
Take B6: the dissociation constant Kd in experiment [5] was found to be 0.296 nM; in experiment [6], 1.07 nM; in experiment [7], 0.252 nM; in experiment [8], 0.774 nM. In addition, the off-rate constant (koff) in experiment [5] came to 0.000104 s⁻¹; in experiment [6], 0.000289 s⁻¹; in experiment [7], 0.000115 s⁻¹; in experiment [8] it was 0.000316 s⁻¹. The on-rate (kon) in experiment [5] was 352000 M⁻¹ s⁻¹; in experiment [6] it was 271000 M⁻¹ s⁻¹; in experiment [7], 456000 M⁻¹ s⁻¹; in experiment [8], 409000 M⁻¹ s⁻¹.
